This passage reports protein stability index results from the supplement of paper PMC10567573.

B1: SLC19A2 (parent)
chain: FHHIPSTCQRVNGIKVQNGGIVTD
B2: OAS1 (parent)
chain: LQLGEGVEFDVLPAFDALGQLTGG
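Further: lentivirally expressed fusions sorted by FACS into six bins by GFP to DsRed ratio, PSI derived from sequencing read proportions per bin multiplied by bin number.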

Variants of B1 are the subject of one data set. As to the kind of experiment: protein stability index of a GFP-peptide fusion (GPS, HEK-293T) (PSI 1-6); higher = more stable. Conditions: c terminus: a fixed tail appended.
In the case of FHHIPSTCQRVNGIKVQNTGIVTD [G19T], the protein stability index was 2.78.
Regarding FHHIPSTCQRVNGIKVQNEGIVTD [G19E], the protein stability index amounted to 2.81.
The same measure, in the same setting: the result for FHHIPSTCQRVNGIKVQNCGIVTD [G19C] reads 2.34; that for FHHIPSTCQRVNGIKVQNFGIVTD [G19F], 2.25.
On the same count and under the same terms, the value for FHHIPSTCQRVNGIKVQNHGIVTD [G19H] was 1.59; that for FHHIPSTCQRVNGIKVQNIGIVTD [G19I] was 3.46.
On the same count and under the same terms, the result for FHHIPSTCQRVNGIKVQNLGIVTD [G19L] reads 1.72; that for FHHIPSTCQRVNGIKVQNWGIVTD [G19W], 1.62.
As to FHHIPSTCQRVNGIKVQNKGIVTD [G19K], the protein stability index is 1.94.
FHHIPSTCQRVNGIKVQNRGIVTD [G19R]: the protein stability index was determined as 1.65.
On the same count and under the same terms, the value for FHHIPSTCQRVNGIKVQNAGIVTD [G19A] was 1.65; that for FHHIPSTCQRVNGIKVQNGGDVTD [I21D] was 2.24.
On the same count and under the same terms, the result for FHHIPSTCQRVNGIKVQNGGNVTD [I21N] reads 3.07; that for FHHIPSTCQRVNGIKVQNGGLVTD [I21L], 1.61; that for FHHIPSTCQRVNGIKVQNGGMVTD [I21M], 2.03.
For the variant FHHIPSTCQRVNGIKVQNGGRVTD [I21R], the protein stability index was found to be 2.43.
Still for that read-out and setting: the value for FHHIPSTCQRVNGIKVQNGGGVTD [I21G] was 2.2; that for FHHIPSTCQRVNGIKVQNGGTVTD [I21T] was 2.19; that for FHHIPSTCQRVNGIKVQNGGSVTD [I21S] was 1.85.
Still for that read-out and setting: the result for FHHIPSTCQRVNGIKVQNGGPVTD [I21P] reads 1.6.
FHHIPSTCQRVNGIKVQNGGHVTD [I21H]: the protein stability index is 2.09.
On to FHHIPSTCQRVNGIKVQNGGYVTD [I21Y], for which the protein stability index was 2.18.
Still for that read-out and setting: the value for FHHIPSTCQRVNGIKVQNGGAVTD [I21A] was 2.46; that for FHHIPSTCQRVNGIKVQNGGKVTD [I21K] was 3.06; that for FHHIPSTCQRVNGIKVQNGGQVTD [I21Q] was 2.16.
On the same count and under the same terms, the result for FHHIPSTCQRVNGIKVQNGGCVTD [I21C] reads 1.79.
Still for that read-out and setting: the result for FHHIPSTCQRVNGIKVQNGGFVTD [I21F] reads 1.83; that for FHHIPSTCQRVNGIKVQNGGEVTD [I21E], 2.15.
Turning to FHHIPSTCQRVNGINVQNGGIVTD [K15N], the protein stability index amounted to 2.05.
The same measure, in the same setting: the result for FHHIPSTCQRVNGISVQNGGIVTD [K15S] reads 2.24; that for FHHIPSTCQRVNGIHVQNGGIVTD [K15H], 2.37.
As for FHHIPSTCQRVNGIRVQNGGIVTD [K15R], the protein stability index came to 2.2.
The same measure, in the same setting: the value for FHHIPSTCQRVNGIVVQNGGIVTD [K15V] was 2.14; that for FHHIPSTCQRVNGILVQNGGIVTD [K15L] was 2.15; that for FHHIPSTCQRVNGIAVQNGGIVTD [K15A] was 1.91.
On the same count and under the same terms, the result for FHHIPSTCQRVNGIPVQNGGIVTD [K15P] reads 2.33; that for FHHIPSTCQRVNGIFVQNGGIVTD [K15F], 2.49; that for FHHIPSTCQRVNGIEVQNGGIVTD [K15E], 2.22.
Still for that read-out and setting: the result for FHHIPSTCQRVNGIYVQNGGIVTD [K15Y] reads 2.47; that for FHHIPSTCQRVNGIGVQNGGIVTD [K15G], 2.38.
For the variant FHHIPSTCQRVNGIIVQNGGIVTD [K15I], the protein stability index was 2.14.
The same measure, in the same setting: the value for FHHIPSTCQRVNGIMVQNGGIVTD [K15M] was 1.64.
On the same count and under the same terms, the result for FHHIPSTCQRVNGICVQNGGIVTD [K15C] reads 2.2; that for FHHIPSTCQRVNGITVQNGGIVTD [K15T], 2.19.
Same read-out and setting: the result for FHHIPSTCQRVNGIQVQNGGIVTD [K15Q] reads 2.47; that for FHHIPSTCQRVNGIDVQNGGIVTD [K15D], 2.57.
In the case of FHHIPSTCQRVNGWKVQNGGIVTD [I14W], the protein stability index was 2.7.
Take FHHIPSTCQRVNGVKVQNGGIVTD [I14V]: the protein stability index stood at 1.69.
On the same count and under the same terms, the value for FHHIPSTCQRVNGYKVQNGGIVTD [I14Y] was 1.47.
As for FHHIPSTCQRVNGIKVQNGGIQTD [V22Q], the protein stability index came to 2.18.
The same measure, in the same setting: the result for FHHIPSTCQRVNGIKVQNGGIGTD [V22G] reads 1.56; that for FHHIPSTCQRVNGIKVQNGGIFTD [V22F], 3.33; that for FHHIPSTCQRVNGIKVQNGGINTD [V22N], 2.23.
Still for that read-out and setting: the value for FHHIPSTCQRVNGIKVQNGGISTD [V22S] was 2.23; that for FHHIPSTCQRVNGIKVQNGGITTD [V22T] was 2.52.
In the case of FHHIPSTCQRVNGIKVQNGGIPTD [V22P], the protein stability index was 2.62.
Still for that read-out and setting: the result for FHHIPSTCQRVNGIKVQNGGIKTD [V22K] reads 1.77; that for FHHIPSTCQRVNGIKVQNGGIRTD [V22R], 2.19.
Same read-out and setting: the result for FHHIPSTCQRVNGIKVQNGGIHTD [V22H] reads 2.01; that for FHHIPSTCQRVNGIKVQNGGIWTD [V22W], 1.91.
Consider FHHIPSTCQRVNGIKVQNGGILTD [V22L], for which the protein stability index turned out to be 2.2.
With FHHIPSTCQRVNGIKVQNGGIDTD [V22D], the protein stability index turned out to be 2.42.
As for FHHIPSTCQRVNGIKVQNGGICTD [V22C], the protein stability index came to 1.61.
On the same count and under the same terms, the result for FHHIPSTCQRVNGIKVQNGGIATD [V22A] reads 2.44; that for FHHIPSTCQRVNGIKVQNGGIMTD [V22M], 1.52.
Consider FHHIPSTCQRVNGIKVQNGGIITD [V22I], for which the protein stability index worked out at 1.73.
On the same count and under the same terms, the result for FHHIPSTCQRVNGIKVQNGGIYTD [V22Y] reads 1.47.
The same measure, in the same setting: the value for FHHIPSTCQRVNGIKVQNGGIETD [V22E] was 1.84; that for FHHIPSTCQRVNGIKHQNGGIVTD [V16H] was 2.15.
The same measure, in the same setting: the value for FHHIPSTCQRVNGIKRQNGGIVTD [V16R] was 1.93.
FHHIPSTCQRVNGIKCQNGGIVTD [V16C]: the protein stability index was 2.2.
Same read-out and setting: the value for FHHIPSTCQRVNGIKMQNGGIVTD [V16M] was 2.44.
The same measure, in the same setting: the result for FHHIPSTCQRVNGIKFQNGGIVTD [V16F] reads 1.6; that for FHHIPSTCQRVNGIKIQNGGIVTD [V16I], 1.51.
Same read-out and setting: the result for FHHIPSTCQRVNGIKAQNGGIVTD [V16A] reads 2.13; that for FHHIPSTCQRVNGIKTQNGGIVTD [V16T], 1.89; that for FHHIPSTCQRVNGIKYQNGGIVTD [V16Y], 1.95.
FHHIPSTCQRVNGIKGQNGGIVTD [V16G]: the protein stability index is 2.13.
The same measure, in the same setting: the value for FHHIPSTCQRVNGIKLQNGGIVTD [V16L] was 1.79; that for FHHIPSTCQRVNGIKNQNGGIVTD [V16N] was 1.96.
Still for that read-out and setting: the result for FHHIPSTCQRVNGIKEQNGGIVTD [V16E] reads 1.49; that for FHHIPSTCQRVNGIKPQNGGIVTD [V16P], 2.14.
For the variant FHHIPSTCQRVNGIKQQNGGIVTD [V16Q], the protein stability index came to 1.56.
With FHHIPSTCQRVNGIKDQNGGIVTD [V16D], the protein stability index worked out at 2.31.
As for FHHIPSTCQRVNGIKKQNGGIVTD [V16K], the protein stability index is 2.02.
On the same count and under the same terms, the value for FHHIPSTCQRVNGIKSQNGGIVTD [V16S] was 2.26; that for FHHIPSTCQRVNGIKWQNGGIVTD [V16W] was 2.14.

The variants in the next data set derive from B2. The description is as above. To be noted: c terminus: a fixed tail appended.
As to LQLGEGVEFDVLPAFDCLGQLTGG [A17C], the protein stability index came to 2.01.
Consider LQWGEGVEFDVLPAFDALGQLTGG [L3W], for which the protein stability index was determined as 2.49.
Same read-out and setting: the result for LQLEEGVEFDVLPAFDALGQLTGG [G4E] reads 3.05; that for LQLGPGVEFDVLPAFDALGQLTGG [E5P], 1.93.
On the same count and under the same terms, the result for LQLGWGVEFDVLPAFDALGQLTGG [E5W] reads 2.32; that for LQLGEGVEFDVLPHFDALGQLTGG [A14H], 1.58.
With LQLGEGVEFDVLPAFDALGRLTGG [Q20R], the protein stability index is 1.51.
